Drawing on patent US20060234940A1 (OSI PHARMACEUTICALS, published 2006), this text covers Ki for 4 molecules.

Where no end group is shown, it is not given here. The star is where a group is joined. Thia = thiazolidide, C1CN(*)CS1

The target of test [1] is T1, recombinant human DP IV, mutation R560A (human, UniProt P27487 37-766).
T1 construct: range 37-766; Same Pichia construct as the wild type, single mutation by site-directed mutagenesis; also called mu 15 DP IV; mu 15
Description: photometric assay, competition with the standard substrate GP-4NA.
Description: (§1) In order to measure the inhibition constant Kᵢ a photometric assay was used The peptides were measured as competitors of the standard substrate GP-4-Nitroanilide. Three different substrate concentrations (0.4 mM to 0.05 mM) were combined with 8 different competitor concentrations (0.5 mM to 2 μM). […] Experiments were carried out under standard conditions: 30° C. in pH 7.6 40 mM HEPES (Sigma-Aldrich) buffer. Nitroaniline production was monitored using a HTS 7000+ microplate reader (PerkinElmer, Überlingen, Germany).

Test [2] concerns the target T2, recombinant human DP IV, mutation W629A (human, UniProt P27487 37-766).
T2 construct: range 37-766; Same Pichia construct as the wild type, single mutation by site-directed mutagenesis; also called mu 16 DP IV; mu 16
Described as above.
Description: as §1

Test [3] deals with T3, porcine kidney DP IV, wild type (porcine, UniProt P22411 38-766, natively glycosylated (Asn279 among others, as seen in the crystal)).
T3 construct: In the crystal a 2-2-2 symmetric tetramer (dimer of dimers); also called p wt DP IV; p wt
The test is described as above.
Description: as §1

Test [4] concerns the target T3, porcine kidney DP IV, wild type. Description: MALDI-TOF MS, inhibition of DP IV-catalyzed truncation of the substrate NPY after preincubation with TFTSDY.
For test [5] the target is unchanged. Briefly: MALDI-TOF MS, inhibition of DP IV-catalyzed truncation of the substrate RANTES1-15 after preincubation with TFTSDY.
The target is the same in test [6]. Briefly: MALDI-TOF MS, inhibition of DP IV-catalyzed truncation of the substrate GIP after preincubation with TFTSDY.
For test [7] the target is unchanged. Briefly: MALDI-TOF MS, inhibition of DP IV-catalyzed truncation of the substrate GLP-1 after preincubation with TFTSDY.
Test [8] deals with DP IV. Description: photometric assay, competition with the standard substrate GP-4-nitroanilide; source of DP IV not stated.
In test [9] the target is T3, porcine kidney DP IV, wild type. Briefly: MALDI-TOF MS, inhibition of DP IV-catalyzed truncation of the substrate glucagon after preincubation with TFTSDY.

T3 sequence (P22411 38-766): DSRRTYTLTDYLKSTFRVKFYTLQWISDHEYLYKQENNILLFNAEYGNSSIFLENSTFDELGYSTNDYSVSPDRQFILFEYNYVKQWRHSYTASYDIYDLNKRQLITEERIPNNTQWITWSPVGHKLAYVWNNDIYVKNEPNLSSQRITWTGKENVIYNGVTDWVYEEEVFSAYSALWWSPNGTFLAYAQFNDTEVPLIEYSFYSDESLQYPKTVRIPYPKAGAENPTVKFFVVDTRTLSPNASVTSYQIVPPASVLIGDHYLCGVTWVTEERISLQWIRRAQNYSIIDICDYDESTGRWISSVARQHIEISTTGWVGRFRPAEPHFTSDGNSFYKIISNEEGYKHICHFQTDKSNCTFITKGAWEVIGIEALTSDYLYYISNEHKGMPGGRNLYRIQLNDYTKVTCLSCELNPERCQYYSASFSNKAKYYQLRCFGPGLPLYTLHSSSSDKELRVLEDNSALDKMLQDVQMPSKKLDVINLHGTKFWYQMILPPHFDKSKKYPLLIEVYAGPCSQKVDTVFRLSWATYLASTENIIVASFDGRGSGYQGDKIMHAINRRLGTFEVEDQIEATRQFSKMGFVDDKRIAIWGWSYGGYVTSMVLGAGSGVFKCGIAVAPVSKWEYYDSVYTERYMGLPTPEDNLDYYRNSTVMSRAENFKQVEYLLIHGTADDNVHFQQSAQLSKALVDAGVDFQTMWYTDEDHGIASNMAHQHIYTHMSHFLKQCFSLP
T2 sequence (P27487 other isoform, or with tags, fused parts or gaps W629A W629A limits assumed): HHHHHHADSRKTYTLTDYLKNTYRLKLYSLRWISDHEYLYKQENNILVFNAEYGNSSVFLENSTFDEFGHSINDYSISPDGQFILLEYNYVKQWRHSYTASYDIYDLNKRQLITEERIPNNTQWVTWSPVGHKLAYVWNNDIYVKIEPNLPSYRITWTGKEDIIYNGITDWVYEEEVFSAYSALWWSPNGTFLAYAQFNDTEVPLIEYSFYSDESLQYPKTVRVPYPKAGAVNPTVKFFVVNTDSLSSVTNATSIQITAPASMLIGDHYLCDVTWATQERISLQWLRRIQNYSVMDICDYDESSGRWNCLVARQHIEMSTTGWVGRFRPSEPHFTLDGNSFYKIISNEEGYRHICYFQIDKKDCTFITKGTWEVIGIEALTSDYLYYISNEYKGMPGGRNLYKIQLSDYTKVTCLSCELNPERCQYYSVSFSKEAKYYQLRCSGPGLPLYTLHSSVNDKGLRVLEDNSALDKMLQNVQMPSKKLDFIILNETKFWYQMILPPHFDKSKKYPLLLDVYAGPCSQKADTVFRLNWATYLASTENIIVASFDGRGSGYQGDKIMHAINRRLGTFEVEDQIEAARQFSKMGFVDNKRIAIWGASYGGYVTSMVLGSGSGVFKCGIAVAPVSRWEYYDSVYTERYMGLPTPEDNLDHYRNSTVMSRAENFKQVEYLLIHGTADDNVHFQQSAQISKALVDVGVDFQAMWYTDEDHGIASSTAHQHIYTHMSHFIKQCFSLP
T1 sequence (P27487 other isoform, or with tags, fused parts or gaps R560A R560A limits assumed): as the sequence (P27487 other isoform, or with tags, fused parts or gaps W629A W629A limits assumed) above, with R530A, A599W counted along it
DP IV, sequence (chain, as listed by the source): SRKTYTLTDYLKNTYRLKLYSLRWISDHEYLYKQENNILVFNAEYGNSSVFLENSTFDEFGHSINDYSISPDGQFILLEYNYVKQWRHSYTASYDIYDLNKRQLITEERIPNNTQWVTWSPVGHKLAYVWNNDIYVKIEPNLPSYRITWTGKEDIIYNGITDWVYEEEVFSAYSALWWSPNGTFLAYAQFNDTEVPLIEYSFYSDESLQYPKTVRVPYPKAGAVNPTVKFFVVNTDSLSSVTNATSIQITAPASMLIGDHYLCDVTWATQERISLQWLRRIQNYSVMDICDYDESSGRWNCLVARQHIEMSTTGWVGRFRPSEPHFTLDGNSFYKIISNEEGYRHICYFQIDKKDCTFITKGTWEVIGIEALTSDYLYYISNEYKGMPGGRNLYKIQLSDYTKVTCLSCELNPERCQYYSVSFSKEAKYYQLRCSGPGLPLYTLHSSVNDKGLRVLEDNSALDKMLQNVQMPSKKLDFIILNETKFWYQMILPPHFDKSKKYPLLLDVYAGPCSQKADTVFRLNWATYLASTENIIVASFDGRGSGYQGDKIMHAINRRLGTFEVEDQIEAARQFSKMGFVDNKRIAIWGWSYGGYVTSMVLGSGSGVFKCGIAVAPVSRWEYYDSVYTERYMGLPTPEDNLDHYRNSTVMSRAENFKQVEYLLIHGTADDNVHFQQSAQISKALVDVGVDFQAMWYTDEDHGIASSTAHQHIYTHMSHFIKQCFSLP

Turning to RRLSYSRRRFE-Thia (also: linkage of decapeptide to Glu not explained) [Transp 01 (RRLSYSRRRF-E-Thia)], the Ki – broadly, a measure of affinity in units of concentration, obtained from inhibition or displacement – worked out at 0.0769 µM in [1] and 0.0855 µM in test [2].
HSDGIFTDSYSRYRKQMAVKKYLAAVL (peptide, UniProt P18509 132-158, looked up, ends and bridges not checked, range 132-158; also called PACAP(1-27)) [PACAP-27] had a Ki in test [3] of 54.3 µM.

B1: hexapeptide TFTSDY (peptide)
peptide: TFTSDY
notes: also called glucagon5-10; T(5)-F-T-S-D-Y
As to B1, the Ki in [4] stood at 17.2 µM; in test [5], 12300 µM; in test [6] it was 65.9 µM; in test [7] it was 13.7 µM; in [8], 710 µM; in [9], 6.8 µM.
For YAESTF-NH2 [YAESTF amide], the inhibitory constant (Ki) in test [1] is 1.14 µM; in test [2], 1.06 µM.
